Test results published in paper PMC2172640 (The Journal of Cell Biology, 2003).

B1: GST–LAP2β(243–397) (domain or fragment, UniProt Q62733 243-397, looked up)
chain: QALTRESTRGSRRTPRRRVEPSQHFRVDGAVISESTPIAETIKASSNDSLVANRLTGNFKHASSILPITEFSDITRRTPKKPLTRAEVGEKTEERRVERDILKEMFPYEASTPTGISASCRRPIKGAAGRPLELSDFRMEESFSSKYVPKYVPLA
B2: GST–LAP2β(1–298) (domain or fragment, UniProt Q62733 1-298, looked up)
chain: MPEFLEDPSVLTKDKLKSELVANNVTLPAGEQRKDVYVQLYLQHLTARNRPPLAAGANSKGPPDFSSDEEREPTPVLGSGASVGRGRGAVGRKATKKTDKPRPEDKDDLDVTELSNEELLEQLVRYGVNPGPIVGTTRKLYEKKLLKLREQGAESRSSTPLPTVSSSAENTRQNGSNDSDRYSDNDEDSKIELKLEKREPLKGRAKTPVTLKQRRIEHNQSYSEAGVTETEWTSGSSKGGPLQALTRESTRGSRRTPRRRVEPSQHFRVDGAVISESTPIAETIKASSNDSLVANRLT
B3: GST–LAP2β(243–373) (domain or fragment, UniProt Q62733 243-373, looked up)
chain: QALTRESTRGSRRTPRRRVEPSQHFRVDGAVISESTPIAETIKASSNDSLVANRLTGNFKHASSILPITEFSDITRRTPKKPLTRAEVGEKTEERRVERDILKEMFPYEASTPTGISASCRRPIKGAAGRP
B4: GST–LAP2β(1–452) (domain or fragment, UniProt Q62733 1-452, looked up)
chain: MPEFLEDPSVLTKDKLKSELVANNVTLPAGEQRKDVYVQLYLQHLTARNRPPLAAGANSKGPPDFSSDEEREPTPVLGSGASVGRGRGAVGRKATKKTDKPRPEDKDDLDVTELSNEELLEQLVRYGVNPGPIVGTTRKLYEKKLLKLREQGAESRSSTPLPTVSSSAENTRQNGSNDSDRYSDNDEDSKIELKLEKREPLKGRAKTPVTLKQRRIEHNQSYSEAGVTETEWTSGSSKGGPLQALTRESTRGSRRTPRRRVEPSQHFRVDGAVISESTPIAETIKASSNDSLVANRLTGNFKHASSILPITEFSDITRRTPKKPLTRAEVGEKTEERRVERDILKEMFPYEASTPTGISASCRRPIKGAAGRPLELSDFRMEESFSSKYVPKYVPLADVKSEKTKKGRSVPMWIKMLLFALVAGFLFLVYQAMETNQGNPFTNFLQDTKISN
B5: GST–LAP2β(299–373) (domain or fragment, UniProt Q62733 299-373, looked up)
chain: GNFKHASSILPITEFSDITRRTPKKPLTRAEVGEKTEERRVERDILKEMFPYEASTPTGISASCRRPIKGAAGRP
B6: GST–LAP2β(137–373) (domain or fragment, UniProt Q62733 137-373, looked up)
chain: TRKLYEKKLLKLREQGAESRSSTPLPTVSSSAENTRQNGSNDSDRYSDNDEDSKIELKLEKREPLKGRAKTPVTLKQRRIEHNQSYSEAGVTETEWTSGSSKGGPLQALTRESTRGSRRTPRRRVEPSQHFRVDGAVISESTPIAETIKASSNDSLVANRLTGNFKHASSILPITEFSDITRRTPKKPLTRAEVGEKTEERRVERDILKEMFPYEASTPTGISASCRRPIKGAAGRP
B7: GST–LAP2β(299–397) (domain or fragment, UniProt Q62733 299-397, looked up)
chain: GNFKHASSILPITEFSDITRRTPKKPLTRAEVGEKTEERRVERDILKEMFPYEASTPTGISASCRRPIKGAAGRPLELSDFRMEESFSSKYVPKYVPLA
B8: GST–LAP2β(137–298) (domain or fragment, UniProt Q62733 137-298, looked up)
chain: TRKLYEKKLLKLREQGAESRSSTPLPTVSSSAENTRQNGSNDSDRYSDNDEDSKIELKLEKREPLKGRAKTPVTLKQRRIEHNQSYSEAGVTETEWTSGSSKGGPLQALTRESTRGSRRTPRRRVEPSQHFRVDGAVISESTPIAETIKASSNDSLVANRLT
B9: GST–LAP2β(1–397) (domain or fragment, UniProt Q62733 1-397, looked up)
chain: MPEFLEDPSVLTKDKLKSELVANNVTLPAGEQRKDVYVQLYLQHLTARNRPPLAAGANSKGPPDFSSDEEREPTPVLGSGASVGRGRGAVGRKATKKTDKPRPEDKDDLDVTELSNEELLEQLVRYGVNPGPIVGTTRKLYEKKLLKLREQGAESRSSTPLPTVSSSAENTRQNGSNDSDRYSDNDEDSKIELKLEKREPLKGRAKTPVTLKQRRIEHNQSYSEAGVTETEWTSGSSKGGPLQALTRESTRGSRRTPRRRVEPSQHFRVDGAVISESTPIAETIKASSNDSLVANRLTGNFKHASSILPITEFSDITRRTPKKPLTRAEVGEKTEERRVERDILKEMFPYEASTPTGISASCRRPIKGAAGRPLELSDFRMEESFSSKYVPKYVPLA

Each binder was assayed against T1, HA95 (human (endogenous in Bjab and HeLa), UniProt Q9ULX6 1-646) (assay: far-Western, overlay or dot blot).
T1 sequence (looked up): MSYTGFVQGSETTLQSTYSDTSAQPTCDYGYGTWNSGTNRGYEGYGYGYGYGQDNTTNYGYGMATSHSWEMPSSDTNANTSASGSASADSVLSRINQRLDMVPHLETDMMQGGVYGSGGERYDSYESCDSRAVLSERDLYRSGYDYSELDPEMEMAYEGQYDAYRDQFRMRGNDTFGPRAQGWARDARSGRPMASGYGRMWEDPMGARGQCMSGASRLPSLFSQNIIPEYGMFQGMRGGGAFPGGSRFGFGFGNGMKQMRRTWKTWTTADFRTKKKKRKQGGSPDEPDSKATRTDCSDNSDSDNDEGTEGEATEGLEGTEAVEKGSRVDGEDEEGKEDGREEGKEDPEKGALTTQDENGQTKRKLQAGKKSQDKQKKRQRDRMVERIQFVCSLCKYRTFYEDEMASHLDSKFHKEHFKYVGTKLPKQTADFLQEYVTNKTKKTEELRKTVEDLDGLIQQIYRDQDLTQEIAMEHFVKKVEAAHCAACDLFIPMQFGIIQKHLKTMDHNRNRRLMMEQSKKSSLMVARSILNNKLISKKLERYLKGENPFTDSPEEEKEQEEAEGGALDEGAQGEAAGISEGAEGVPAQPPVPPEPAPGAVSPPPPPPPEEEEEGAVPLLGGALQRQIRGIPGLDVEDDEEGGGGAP
B1: binds. B2: binds. B3: binds. B4: binds. B5: binds. B6: binds. B7: binds. B8: binds. B9: binds.
